In publication PMC3709774, “Preparation of Novel Poly(hydroxyethyl methacrylate-coglycidyl methacrylate)-Grafted Core-Shell Magnetic Chitosan Microspheres and Immobilization of Lactase” (International Journal of Molecular Sciences, 2013):

Substrate: O=[N+]([O-])c1ccccc1O[C@@H]1O[C@H](CO)[C@H](O)[C@H](O)[C@H]1O
Experiment: purified protein
Assay type: biochemical, Kluyveromyces lactis
Settings: free enzyme, 37 °C, assay buffer 50 mM potassium phosphate, 1 mmol/L MgCl2, pH 6.5 (general activity assay), substrate range printed as 6.3-31.5 μmol/L, which conflicts with the mmol/L unit of Km

B1: lactase (DSM Maxilact 5000) (Kluyveromyces lactis NRRL Y-1140) (protein)
chain: MSCLIPENLRNPKKVHENRLPTRAYYYDQDIFESLNGPWAFALFDAPLDAPDAKNLDWETAKKWSTISVPSHWELQEDWKYGKPIYTNVQYPIPIDIPNPPTVNPTGVYARTFELDSKSIESFEHRLRFEGVDNCYELYVNGQYVGFNKGSRNGAEFDIQKYVSEGENLVVVKVFKWSDSTYIEDQDQWWLSGIYRDVSLLKLPKKAHIEDVRVTTTFVDSQYQDAELSVKVDVQGSSYDHINFTLYEPEDGSKVYDASSLLNEENGNTTFSTKEFISFSTKKNEETAFKINVKAPEHWTAENPTLYKYQLDLIGSDGSVIQSIKHHVGFRQVELKDGNITVNGKDILFRGVNRHDHHPRFGRAVPLDFVVRDLILMKKFNINAVRNSHYPNHPKVYDLFDKLGFWVIDEADLETHGVQEPFNRHTNLEAEYPDTKNKLYDVNAHYLSDNPEYEVAYLDRASQLVLRDVNHPSIIIWSLGNEACYGRNHKAMYKLIKQLDPTRLVHYEGDLNALSADIFSFMYPTFEIMERWRKNHTDENGKFEKPLILCEYGHAMGNGPGSLKEYQELFYKEKFYQGGFIWEWANHGIEFEDVSTADGKLHKAYAYGGDFKEEVHDGVFIMDGLCNSEHNPTPGLVEYKKVIEPVHIKIAHGSVTITNKHDFITTDHLLFIDKDTGKTIDVPSLKPEESVTIPSDTTYVVAVLKDDAGVLKAGHEIAWGQAELPLKVPDFVTETAEKAAKINDGKRYVSVESSGLHFILDKLLGKIESLKVKGKEISSKFEGSSITFWRPPTNNDEPRDFKNWKKYNIDLMKQNIHGVSVEKGSNGSLAVVTVNSRISPVVFYYGFETVQKYTIFANKINLNTSMKLTGEYQPPDFPRVGYEFWLGDSYESFEWLGRGPGESYPDKKESQRFGLYDSKDVEEFVYDYPQENGNHTDTHFLNIKFEGAGKLSIFQKEKPFNFKISDEYGVDEAAHACDVKRYGRHYLRLDHAIHGVGSEACGPAVLDQYRLKAQDFNFEFDLAFE
notes: commercial enzyme preparation, free (not immobilised)
B1 showed a Km of 25.4 mmol/L and a kcat of 1182.9 s⁻¹.
